The target in assay [1] is CD81 on 293-T cells (human (endogenous in HEK 293-T)) (UniProt P60033). The assay can be described thus: flow cytometry on cells. In general terms: In flow cytometry, cells or beads pass a laser one at a time.
Assay [2] shares this target. The experiment in a line: flow cytometry on cells. The source holds these as a separate data set.

In paper PMC3549482 one finds Mean FI data, which are given here for one substance.

Like-named read-outs stand apart in the source and are kept apart here.

Chain of UniProt P60033 (P60033 whole entry): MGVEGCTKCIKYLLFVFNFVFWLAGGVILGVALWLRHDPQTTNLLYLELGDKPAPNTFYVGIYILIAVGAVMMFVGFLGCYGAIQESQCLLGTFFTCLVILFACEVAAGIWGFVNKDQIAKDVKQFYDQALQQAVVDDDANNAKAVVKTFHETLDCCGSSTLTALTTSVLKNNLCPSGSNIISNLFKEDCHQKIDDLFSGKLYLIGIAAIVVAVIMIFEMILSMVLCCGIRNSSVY

“HCV E2 (strain not told for the experiment on 293-T cells) (natural protein)”: the Mean FI in assay [1] worked out at 62; in assay [2], 79.
